Test results: PMC3790809
Several values for one entry are separate records, joined by “and”; a condition that tells them apart may be missing. Identical values can stand only once.

How the values were obtained:
[1] = target: YsaN-His (full length YsaN, YE3544, with N-terminal His tag) (Yersinia enterocolitica ATCC51871 (serotype O:8, biovar 1B)); experiment: dynamic light scattering; YsaN-His 0.7 mg/ml, 25°C, 25 mM Tris, 300 mM NaCl, 2% glycerol; mass from the hydrodynamic size
[2] = target: YsaN-His (full length YsaN, YE3544, with N-terminal His tag) (Yersinia enterocolitica ATCC51871 (serotype O:8, biovar 1B)); experiment: SEC
[3] = target: YsaL-His (YE3555 with N-terminal His tag, refolded) (Yersinia enterocolitica ATCC51871 (serotype O:8, biovar 1B)); experiment: cross-linking; refolded YsaL-His (100 µg in 30 µl), 2 µL of 1.5% glutaraldehyde, 25°C, 5 min; 50 mM sodium phosphate pH 8.0, 150 mM NaCl; SDS-PAGE
[4] = target: YsaL-His (YE3555 with N-terminal His tag, refolded) (Yersinia enterocolitica ATCC51871 (serotype O:8, biovar 1B)); experiment: SEC
[5] = target: YsaNΔ(426-430)-His (Yersinia enterocolitica ATCC51871); experiment: SPR
[6] = target: YsaNflr-His (full length YsaN, refolded) (Yersinia enterocolitica ATCC51871); experiment: SPR
[7] = target: YsaN-His (full length YsaN, soluble) (Yersinia enterocolitica ATCC51871); experiment: SPR
[8] = target: YsaNΔ(411-430)-His (Yersinia enterocolitica ATCC51871); experiment: SPR
[9] = target: YsaNΔ(1-5)-His (Yersinia enterocolitica ATCC51871); experiment: SPR
[10] = target: YsaNΔ(426–430)-His (Yersinia enterocolitica ATCC51871 (serotype O:8, biovar 1B)); experiment: SPR
[11] = target: YsaNΔ(411–430)-His (Yersinia enterocolitica ATCC51871 (serotype O:8, biovar 1B)); experiment: SPR
[12] = target: YsaN-His (full length YsaN, YE3544, with N-terminal His tag) (Yersinia enterocolitica ATCC51871 (serotype O:8, biovar 1B)); experiment: SPR
[13] = target: YsaNΔ(1–5)-His (Yersinia enterocolitica ATCC51871 (serotype O:8, biovar 1B)); experiment: SPR
[14] = target: YsaN-His (full length YsaN, YE3544, with N-terminal His tag) (Yersinia enterocolitica ATCC51871 (serotype O:8, biovar 1B))

In the case of “YsaN-His (full length YsaN, YE3544, with N-terminal His tag) (enzyme)”, the percent of sample in the oligomeric form [1] is reported as 90% and the stoichiometry N [2] is reported as 12.

“YsaL-His (YE3555 with N-terminal His tag, refolded) (natural protein)” was tested, and the stoichiometry N [3] was 2 and the stoichiometry N [4] was 2.

“untagged YsaL (YE3555), refolded (natural protein)” showed a Ka [5] of 882000 M⁻¹, a Ka [6] of 2.38e+08 M⁻¹ and a koff [6] of 1.91e-05 s⁻¹. It also gave a kon [6] of 4540 M⁻¹ s⁻¹, a Ka [7] of 2.9e+07 M⁻¹ and a koff [7] of 0.000119 s⁻¹. The kon [7] was 3450 M⁻¹ s⁻¹, the Ka [8] was 3.86e+06 M⁻¹ and the Kd [8] was 260 nM. The koff [8] was 0.000132 s⁻¹, the kon [8] was 510 M⁻¹ s⁻¹ and the Ka [9] was 20300 M⁻¹.

Substance “untagged YsaL (YE3555) (natural protein)” has a stoichiometry N (YsaL per YsaN) [2] of 2, a Kd [10] of 100 nM and a Kd [11] of 100 nM. For the same substance, the Kd [12] was 35 nM and 42 nM, the Kd [13] was 400000 nM and the inhibition of the ATPase activity of YsaN-His (malachite green assay); untagged YsaL in the soluble co-purified untagged YsaL-YsaN-His complex, highly comparable with YsaL-His added at 2∶1 [14] was 73%.
